Where two headings read alike, the source gives them in different places. One block for each molecule: values may come before it.
Columns and labels:
[1] = target: full-length FLNa lacking hinge 1 (human) (UniProt P21333); assay: rotary-shadowing electron microscopy
His-IgFLNa16-24 (human) = assay: rotary-shadowing electron microscopy
His-IgFLNa1-8+24 (human) = assay: rotary-shadowing electron microscopy
[2] = target: F-actin (rabbit skeletal muscle actin) (rabbit) (UniProt P68135); assay: co-sedimentation
[3] = target: His-ABD-IgFLNa1-8+24 (human) (UniProt P21333); assay: rotary-shadowing electron microscopy
[4] = target: His-IgFLNa8-15+24 (human); assay: rotary-shadowing electron microscopy
[5] = target: FLAG-tagged full-length FLNa (human) (UniProt P21333); assay: rotary-shadowing electron microscopy
[6] = target: F-actin (rabbit skeletal muscle actin) (rabbit) (UniProt P68135); assay: co-sedimentation; remark: listed apart in the source
[7] = target: recombinant human filamin A (FLNa), full length (human) (UniProt P21333); assay: rotary-shadowing electron microscopy
[8] = target: His-ABD-IgFLNa16-24 (human) (UniProt P21333); assay: rotary-shadowing electron microscopy
[9] = target: full-length FLNa lacking hinge 2 (human) (UniProt P21333); assay: rotary-shadowing electron microscopy
[10] = target: His-ABD-IgFLNa8-15+24 (human) (UniProt P21333); assay: rotary-shadowing electron microscopy
[11] = target: FLAG-tagged full-length FLNa (human, UniProt P21333 1-2647); assay: pull-down

Molecule: full-length FLNa lacking hinge 1 (from UniProt P21333 1-2647) (natural protein)
- stoichiometry N [1]: 2

Molecule: His-IgFLNa16-24 (domain or fragment)
- stoichiometry N (His-IgFLNa16-24 (human)): 2

Molecule: His-IgFLNa1-8+24 (domain or fragment)
- stoichiometry N (His-IgFLNa1-8+24 (human)): 2

- Kd [2]: 0.31 µM
- stoichiometry N (ratio to actin, mol/mol) [2]: 12
Molecule: ABD-IgFLNa1-23 (domain or fragment)

- Kd [2]: 7.1 µM
- stoichiometry N (ratio to actin, mol/mol) [2]: 1.8
Molecule: FLAG-ABD-IgFLNa1-8 (domain or fragment)

- Kd [2]: 11.8 µM
- stoichiometry N (ratio to actin, mol/mol) [2]: 1.3
Molecule: ABD-IgFLNa1-2 (domain or fragment)

Molecule: His-ABD-IgFLNa1-8+24 (from UniProt P21333 1-278) (domain or fragment)
- stoichiometry N [3]: 2

Molecule: His-IgFLNa8-15+24 (domain or fragment)
- stoichiometry N [4]: 2

Molecule: FLAG-tagged full-length FLNa, P21333 1-2647
- stoichiometry N [5]: 2

Molecule: recombinant human filamin A (FLNa), full length, P21333 1-2647
- percent bound of total input [6]: 83.6%
- KD of the high avidity site (apparent, two independent site model) [2]: 0.017 µM
- KD of the low affinity site (apparent, two independent site model) [2]: 0.22 µM
- percent bound of total input [2]: 56.3%
- stoichiometry N [7]: 2

- Kd [2]: 7.5 µM
- stoichiometry N (ratio to actin, mol/mol) [2]: 1.7
Molecule: ABD-IgFLNa1-4 (domain or fragment)

Molecule: His-ABD-IgFLNa16-24 (from UniProt P21333 1-278) (domain or fragment)
- stoichiometry N [8]: 2

- Kd [2]: 0.67 µM
- stoichiometry N (ratio to actin, mol/mol) [2]: 5.4
Molecule: ABD-IgFLNa1-15 (domain or fragment)

- percent bound of total input [6]: 11.7%
- Kd [2]: 17 µM
- percent bound of total input [2]: 8.7%
- stoichiometry N (ratio to actin, mol/mol) [2]: 1
Molecule: FLNa ABD (F-actin binding domain alone) (domain or fragment)

Molecule: full-length FLNa lacking hinge 2 (from UniProt P21333 1-2647) (natural protein)
- stoichiometry N [9]: 2

Molecule: His-ABD-IgFLNa8-15+24 (from UniProt P21333 1-278) (domain or fragment)
- stoichiometry N [10]: 2

- binding result [11]: binds
B1: full-length human recombinant FilGAP (natural protein, UniProt Q8N264 1-748, looked up)
chain: MEENNDSTENPQQGQGRQNAIKCGWLRKQGGFVKTWHTRWFVLKGDQLYYFKDEDETKPLGTIFLPGNKVSEHPCNEENPGKFLFEVVPGGDRDRMTANHESYLLMASTQNDMEDWVKSIRRVIWGPFGGGIFGQKLEDTVRYEKRYGNRLAPMLVEQCVDFIRQRGLKEEGLFRLPGQANLVKELQDAFDCGEKPSFDSNTDVHTVASLLKLYLRELPEPVIPYAKYEDFLSCAKLLSKEEEAGVKELAKQVKSLPVVNYNLLKYICRFLDEVQSYSGVNKMSVQNLATVFGPNILRPKVEDPLTIMEGTVVVQQLMSVMISKHDCLFPKDAELQSKPQDGVSNNNEIQKKATMGQLQNKENNNTKDSPSRQCSWDKSESPQRSSMNNGSPTALSGSKTNSPKNSVHKLDVSRSPPLMVKKNPAFNKGSGIVTNGSFSSSNAEGLEKTQTTPNGSLQARRSSSLKVSGTKMGTHSVQNGTVRMGILNSDTLGNPTNVRNMSWLPNGYVTLRDNKQKEQAGELGQHNRLSTYDNVHQQFSMMNLDDKQSIDSATWSTSSCEISLPENSNSCRSSTTTCPEQDFFGGNFEDPVLDGPPQDDLSHPRDYESKSDHRSVGGRSSRATSSSDNSETFVGNSSSNHSALHSLVSSLKQEMTKQKIEYESRIKSLEQRNLTLETEMMSLHDELDQERKKFTMIEIKMRNAERAKEDAEKRNDMLQKEMEQFFSTFGELTVEPRRTERGNTIWIQ
